Results: article PMC13507205, “FAIMS-GPF XL-MS: crosslinking-mass spectrometry based on gas-phase fractionation” (Nature Communications, 2026)

Molecular target: T1, CDK7 kinase fused to a C-terminal Strep-tag II sequence (UniProt P50613 1-346)
T1 construct: No cleavage of the tag is described; The theoretical mass of the trimer (113,879 Da with one phosphorylation) would fit whole chains; source: Sf21 cells, baculovirus, purified as the CAK complex (Strep-Tactin XT, eluted with biotin)
Test: cross-linking; purified CAK complex (co-expressed, co-purified) at 0.7 mg/mL in 20 mM Hepes pH 8, 150 mM KCl, 1 mM EDTA, 1 mM DTT, 50 mM biotin; DSSO at 200 molar excess, 45 min, RT; three replicates; 4-CV FAIMS-GPF nLC-MS/MS; XLs kept if in at least 2 of 3 replicates
Settings: both partners purified

T1 sequence (P50613 whole entry, the tested form may be a part): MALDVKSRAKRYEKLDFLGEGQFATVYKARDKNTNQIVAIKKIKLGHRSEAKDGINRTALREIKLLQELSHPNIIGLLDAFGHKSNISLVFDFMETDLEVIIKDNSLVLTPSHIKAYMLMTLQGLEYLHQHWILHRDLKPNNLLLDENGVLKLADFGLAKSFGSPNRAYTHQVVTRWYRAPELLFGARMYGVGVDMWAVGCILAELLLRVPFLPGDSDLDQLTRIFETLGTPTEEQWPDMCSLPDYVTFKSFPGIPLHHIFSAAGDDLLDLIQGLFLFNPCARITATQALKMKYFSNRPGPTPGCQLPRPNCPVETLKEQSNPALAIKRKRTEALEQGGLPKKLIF

B1: MAT1 (natural protein, UniProt P51948 1-309, looked up)
chain: MDDQGCPRCKTTKYRNPSLKLMVNVCGHTLCESCVDLLFVRGAGNCPECGTPLRKSNFRVQLFEDPTVDKEVEIRKKVLKIYNKREEDFPSLREYNDFLEEVEEIVFNLTNNVDLDNTKKKMEIYQKENKDVIQKNKLKLTREQEELEEALEVERQENEQRRLFIQKEEQLQQILKRKNKQAFLDELESSDLPVALLLAQHKDRSTQLEMQLEKPKPVKPVTFSTGIKMGQHISLAPIHKLEEALYEYQPLQIETYGPHVPELEMLGRLGYLNHVRAASPQDLAGGYTSSLACHRALQDAFSGLFWQPS
notes: MAT1, subunit of the CAK heterotrimer; source: Sf21 cells, baculovirus, purified as the CAK complex (Strep-Tactin XT, eluted with biotin)
binding result: binds
